Drawing on the Immune Epitope Database (IEDB), this text covers Kd for 46 sequences.

The target in assay [1] is HLA-B*07:02. The assay can be described thus: IEDB peptide-MHC binding, purified MHC/competitive/radioactivity; filed as Kd, often an IC50 or EC50 that approximates it; ≥ and ≤ were set here for values at or beyond the usual limits of such assays.
Assay [2] addresses HLA-B*51:01. The assay is described as above.
The target in assay [3] is HLA-B*53:01. The assay is described as above.
Assay [4] addresses HLA-A*30:01. Described as above. The settings on record: source organism: Vaccinia virus WR.
Assay [5] deals with HLA-A*32:01. The assay is described as above.
Assay [6] concerns the target HLA-B*08:01. Described as above.
Assay [7] deals with HLA-B*15:01. Described as above.
In assay [8] the target is HLA-B*15:03. The assay is described as above.
The target of assay [9] is HLA-A*02:03. Described as above.
Assay [10] concerns the target HLA-A*02:01. The description is as above.
Assay [11] deals with HLA-B*48:01. The assay can be described thus: IEDB peptide-MHC binding, purified MHC/direct/fluorescence; filed as Kd, often an IC50 or EC50 that approximates it; ≥ and ≤ were set here for values at or beyond the usual limits of such assays.
For assay [12], the target named is HLA-B*44:02. The assay can be described thus: IEDB peptide-MHC binding, purified MHC/competitive/radioactivity; filed as Kd, often an IC50 or EC50 that approximates it; ≥ and ≤ were set here for values at or beyond the usual limits of such assays.
The target of assay [13] is HLA-B*44:03. The assay is described as above.
In assay [14] the target is HLA-A*26:01. As to the kind of experiment: IEDB peptide-MHC binding, purified MHC/competitive/fluorescence; filed as Kd, often an IC50 or EC50 that approximates it; ≥ and ≤ were set here for values at or beyond the usual limits of such assays. The conditions noted are these: source organism: Escherichia coli str. K-12 substr. MG1655.
Assay [15] deals with HLA-B*40:01. The assay can be described thus: IEDB peptide-MHC binding, purified MHC/competitive/radioactivity; filed as Kd, often an IC50 or EC50 that approximates it; ≥ and ≤ were set here for values at or beyond the usual limits of such assays. The conditions noted are these: source organism: Dengue virus 3 Martinique/1243/1999.
Assay [16] has as its target HLA-A*01:01. The assay can be described thus: IEDB peptide-MHC binding, purified MHC/direct/fluorescence; filed as Kd, often an IC50 or EC50 that approximates it; ≥ and ≤ were set here for values at or beyond the usual limits of such assays. The settings on record: source organism: Yellow fever virus.
The target of assay [17] is HLA-A*02:01. The assay is described as above. The settings on record: source organism: Yellow fever virus.
In assay [18] the target is HLA-A*03:01. The description is as above. The conditions noted are these: source organism: Yellow fever virus.
Assay [19] has as its target HLA-A*69:01. Described as above. The settings on record: source organism: Yellow fever virus.
For assay [20], the target named is HLA-B*07:02. The description is as above. The conditions noted are these: source organism: Yellow fever virus.
In assay [21] the target is HLA-B*15:01. The assay is described as above. The settings on record: source organism: Yellow fever virus.
The target in assay [22] is HLA-B*40:01. The assay is described as above. The conditions noted are these: source organism: Yellow fever virus.
The target of assay [23] is HLA-B*44:02. The assay is described as above. The settings on record: source organism: Yellow fever virus.
In assay [24] the target is HLA-B*46:01. The description is as above. The conditions noted are these: source organism: Yellow fever virus.
Assay [25] has as its target HLA-B*57:01. The assay is described as above. The settings on record: source organism: Yellow fever virus.
Assay [26] deals with HLA-B*58:01. The description is as above. The conditions noted are these: source organism: Yellow fever virus.
Assay [27] addresses HLA-B*27:05. The description is as above. The settings on record: source organism: Orthohantavirus hantanense.
The mark [28] stands for this setting: source organism: Dengue virus 4 Philippines/H241/1956.
Setting [29] is: source organism: Vaccinia virus WR.
The mark [30] stands for this setting: source organism: Dengue virus 2 Jamaica/1409/1983.
[31] abbreviates: source organism: Dengue virus 3 Martinique/1243/1999.
Setting [32] is: source organism: Lassa virus Josiah.
Where [33] appears, read: source organism: Yellow fever virus.
[34] abbreviates: source organism: Dengue virus 1 Singapore/S275/1990.
[35] abbreviates: source organism: Vaccinia virus Copenhagen.
The mark [36] stands for this setting: source organism: Dengue virus 1 Brazil/97-11/1997.
[37] abbreviates: source organism: Dengue virus 3 Sri Lanka/1266/2000.

Bounds are passed on as bounds.

For orientation: Kd means a measure of binding affinity in units of concentration. For the sequence SPIEDIEREI, the equilibrium dissociation constant (Kd) in assay [1] (setting [28]) is 5.45 µM; in [2] (setting [28]), at least 22 µM; in [3] (setting [28]), 0.411 µM.

As to RSHIRKPPS, the dissociation constant Kd in [4] was 0.0821 µM; in assay [5] (setting [29]) it was at least 77.8 µM; in assay [6] (setting [29]), 3.33 µM; in [7] (setting [29]), 11 µM; in assay [8] (setting [29]) it was at least 23.1 µM.

Take FLTIPPTAGI: the Kd worked out at 0.00979 µM in [9] (setting [30]) and 0.343 µM in [2] (setting [30]).

With YKFSCGLSL, the Kd in assay [8] (setting [29]) was found to be 0.000132 µM.

As for LPLFIFSLK, the dissociation constant Kd in [2] (setting [31]) was found to be 13.1 µM.

Consider MTSYQYLII, for which, in [10] (setting [32]), the Kd was 0.926 µM.

On to SRLTYQWHK, for which the dissociation constant (Kd) in [11] (setting [33]) is at least 20 µM.

LPETMETLL: the dissociation constant Kd in [3] (setting [31]) was determined as 3.58 µM.

For RAAGLQDCTML, in [10] (source organism: Hepatitis C virus (isolate 1)), the Kd is at least 50 µM.

Regarding ALKRAQSEL, the Kd in assay [10] (source organism: Homo sapiens) is at least 41.8 µM; in assay [9] (source organism: Homo sapiens) it was 0.0233 µM.

Turning to MEVTARWLW, the results for the dissociation constant Kd in [12] (setting [34]), in assay [13] (setting [34]) and in assay [3] (setting [34]) were 0.0021 µM, 0.0109 µM and 0.804 µM, respectively.

Regarding SMWYIPNVF, the Kd in assay [5] (setting [35]) worked out at 0.0051 µM; in assay [8] (setting [35]), 0.000722 µM.

LIGARRTSF: the dissociation constant (Kd) in assay [4] came to 0.563 µM; in [5] (setting [29]), 5.82 µM; in assay [6] (setting [29]), 0.0015 µM; in assay [7] (setting [29]), 0.0401 µM; in assay [8] (setting [29]) it was 0.176 µM.

Consider AAFEFINSL, for which the dissociation constant Kd in assay [8] (setting [29]) stood at 0.00455 µM.

On to SSKVFLKAF, for which the Kd in assay [4] amounted to 2.41 µM; in assay [5] (setting [29]) it was 7.02 µM; in assay [6] (setting [29]) it was 0.728 µM; in assay [7] (setting [29]), 0.0017 µM; in [8] (setting [29]), 0.000369 µM.

With SMYPSYIEF, the equilibrium dissociation constant (Kd) in assay [8] (setting [29]) turned out to be 0.00011 µM.

In assay [11] (source organism: Cryptosporidium parvum Iowa II), AQVTCLKFL registered a Kd of 1.67 µM.

Consider FQVVNPHLL, for which the Kd in assay [8] (setting [29]) came to 0.0403 µM.

For the sequence LEFIHSQGF, the equilibrium dissociation constant (Kd) in assay [8] (setting [29]) was 0.107 µM.

Turning to MIEEVMRSRW, in [3] (setting [36]), the Kd came to 0.166 µM.

Sequence DVAKIEAPL registered a Kd in assay [14] of 0.324 µM.

As for QPMEHKYSW, the Kd in assay [1] (setting [36]) turned out to be 0.141 µM; in assay [3] (setting [36]) it was 0.0578 µM.

For LIRNKRLSL, the Kd in [4] is 0.696 µM; in [5] (setting [29]) it was at least 77.8 µM; in assay [6] (setting [29]), 0.000783 µM; in assay [7] (setting [29]), 0.455 µM; in assay [8] (setting [29]), 0.215 µM.

DDVARAWSL: the equilibrium dissociation constant (Kd) in assay [11] (source organism: Mycobacterium tuberculosis str. Haarlem) is at least 20 µM.

With AQAELDAAF, the Kd in assay [11] (source organism: Salmonella enterica subsp. enterica serovar Paratyphi A str. ATCC 9150) amounted to 0.696 µM.

Consider GLQSQQGHL, for which, in assay [10] (source organism: Hepatitis B virus subtype ayw), the Kd is at least 5 µM.

Regarding SETQHGTIL, the equilibrium dissociation constant (Kd) in assay [15] was determined as 0.00395 µM; in [13] (setting [31]) it was 0.127 µM.

Regarding MKSLAMTAF, the Kd in assay [8] (setting [29]) worked out at 0.000182 µM.

For LPMTVAAMGV, the dissociation constant (Kd) in assay [1] (setting [37]) was 0.0507 µM; in [2] (setting [37]) it was 0.633 µM.

As for LEFFMMVLLI, the equilibrium dissociation constant (Kd) was 12.2 µM in assay [15] and 9.21 µM in [13] (setting [31]).

For the sequence RLNPEVSYF, the equilibrium dissociation constant (Kd) in assay [7] (setting [29]) came to 0.000304 µM; in assay [8] (setting [29]), 0.00032 µM.

As to CSAPPGQHM, the equilibrium dissociation constant (Kd) in assay [7] (setting [29]) is 0.0527 µM; in [8] (setting [29]) it was 0.024 µM.

In turn, YRLRGEARK gave a dissociation constant Kd in [11] (setting [34]) of at least 20 µM.

For HMAYSFQTF, the equilibrium dissociation constant (Kd) in assay [5] (setting [35]) was 0.0163 µM; in assay [6] (setting [35]), 0.733 µM; in [7] (setting [35]), 0.000246 µM; in assay [8] (setting [35]), 0.000279 µM.

Consider ERWFVRNPF, for which the Kd in [16], in assay [17], in [18], in assay [19], in assay [20] and in assay [21] was at least 20 µM in each case. Besides, the Kd in [22], in assay [23], in [24], in [11] (setting [33]), in assay [25] and in assay [26] was at least 20 µM throughout.

Regarding KRIAPMLYK, the Kd in assay [27] was 0.0407 µM; in [11] (source organism: Orthohantavirus hantanense) it was at least 20 µM.

Consider LHAVYSIVF, for which the Kd in [8] (setting [29]) came out at 0.00881 µM.

For the sequence RLQPNQPPK, the Kd worked out at 0.145 µM in assay [4]; 1.52 µM in assay [5] (setting [29]); 1.01 µM in assay [6] (setting [29]); 0.934 µM in [7] (setting [29]); 0.298 µM in [8] (setting [29]).

As to IPTAMAFHL, the equilibrium dissociation constant (Kd) in assay [1] (setting [30]) was determined as 0.0831 µM; in assay [3] (setting [30]) it was 0.0494 µM.

Take MAFIAFLRFL: in [2] (setting [36]), the Kd came to 16.1 µM.

With VGVNHSNTF, in assay [8] (setting [29]), the Kd worked out at 0.0806 µM.

Consider GLTYSQLMT, for which, in [10] (setting [32]), the Kd was 12.5 µM.

As for MIKIALSVA, the dissociation constant Kd in assay [4] stood at 1.27 µM; in assay [5] (setting [29]), 4.69 µM; in assay [6] (setting [29]) it was 0.535 µM; in [7] (setting [29]), 2.78 µM; in assay [8] (setting [29]) it was 0.559 µM.

As to LPVWLAYRV, the dissociation constant Kd in [2] (setting [30]) was 0.13 µM; in assay [3] (setting [30]), 0.2 µM.

On to FSGSFASIF, for which the Kd in assay [8] (setting [29]) came to 0.000318 µM.

Regarding LEFFMMVLL, the Kd is 2.04 µM in assay [5] (setting [31]), 0.0131 µM in assay [15], 10.1 µM in assay [12] (setting [31]) and 2.64 µM in assay [13] (setting [31]).
